Laboratory results: US20150344570A1 (published 2015)

B1: GpH7-A5/GpH7-B3 variant N325_06M/GpL16-k0 (antibody, human IgG1, kappa)
heavy 1: not shown
heavy 2: not shown
light: DIVMTQSPLSLPVTPGEPASISCQASESLVHSNRNTYLHWYLQKPGQSPQLLIYKVSNRFSGVPDRFSGSGSGTDFTLKISRVEAEDVGVYYCSQNTHVPPTFGQGTKVEIERTVAAPSVFIFPPSDEQLKSGTASVVCLLNNFYPREAKVQWKVDNALQSGNSQESVTEQDSKDSTYSLSSTLTLSKADYEKHKVYACEVTHQGLSSPVTKSFNRGEC
notes: Heterodimerized anti-glypican-3 IgG1; alteration in the GpH7-B3 chain only; also called He Ab
B2: GpH7-A5/GpH7-B3 variant N325_07I/GpL16-k0 (antibody, human IgG1, kappa)
heavy 1: not shown
heavy 2: not shown
light: B1 light
notes: as for B1
B3: GpH7-A5/GpH7-B3 variant N325_08L/GpL16-k0 (antibody, human IgG1, kappa)
heavy 1: not shown
heavy 2: not shown
light: B1 light
notes: as for B1
B4: GpH7-A5/GpH7-B3 variant N325_09D/GpL16-k0 (antibody, human IgG1, kappa)
heavy 1: not shown
heavy 2: not shown
light: B1 light
notes: as for B1
B5: GpH7-A5/GpH7-B3 variant N325_13S/GpL16-k0 (antibody, human IgG1, kappa)
heavy 1: not shown
heavy 2: not shown
light: B1 light
notes: as for B1
B6: GpH7-A5/GpH7-B3 variant N325_20W/GpL16-k0 (antibody, human IgG1, kappa)
heavy 1: not shown
heavy 2: not shown
light: B1 light
notes: as for B1
B7: GpH7-A5/GpH7-B3 variant P238_16H/GpL16-k0 (antibody, human IgG1, kappa)
heavy 1: not shown
heavy 2: not shown
light: B1 light
notes: as for B1
B8: GpH7-A5/GpH7-B3 variant P238_19Q/GpL16-k0 (antibody, human IgG1, kappa)
heavy 1: not shown
heavy 2: not shown
light: B1 light
notes: as for B1
B9: GpH7-A5/GpH7-B3 variant P238_20W/GpL16-k0 (antibody, human IgG1, kappa)
heavy 1: not shown
heavy 2: not shown
light: B1 light
notes: as for B1
B10: GpH7-A5/GpH7-B3 variant P331_03V/GpL16-k0 (antibody, human IgG1, kappa)
heavy 1: not shown
heavy 2: not shown
light: B1 light
notes: as for B1
B11: GpH7-A5/GpH7-B3 variant P331_04F/GpL16-k0 (antibody, human IgG1, kappa)
heavy 1: not shown
heavy 2: not shown
light: B1 light
notes: as for B1
B12: GpH7-A5/GpH7-B3 variant P331_06M/GpL16-k0 (antibody, human IgG1, kappa)
heavy 1: not shown
heavy 2: not shown
light: B1 light
notes: as for B1
B13: GpH7-A5/GpH7-B3 variant P331_07I/GpL16-k0 (antibody, human IgG1, kappa)
heavy 1: not shown
heavy 2: not shown
light: B1 light
notes: as for B1
B14: GpH7-A5/GpH7-B3 variant P331_10E/GpL16-k0 (antibody, human IgG1, kappa)
heavy 1: not shown
heavy 2: not shown
light: B1 light
notes: as for B1
B15: GpH7-A5/GpH7-B3 variant P331_15Y/GpL16-k0 (antibody, human IgG1, kappa)
heavy 1: not shown
heavy 2: not shown
light: B1 light
notes: as for B1
B16: GpH7-A5/GpH7-B3 variant S239_03V/GpL16-k0 (antibody, human IgG1, kappa)
heavy 1: not shown
heavy 2: not shown
light: B1 light
notes: as for B1
B17: GpH7-A5/GpH7-B3 variant S239_05P/GpL16-k0 (antibody, human IgG1, kappa)
heavy 1: not shown
heavy 2: not shown
light: B1 light
notes: as for B1
B18: GpH7-A5/GpH7-B3 variant S239_06M/GpL16-k0 (antibody, human IgG1, kappa)
heavy 1: not shown
heavy 2: not shown
light: B1 light
notes: as for B1
B19: GpH7-A5/GpH7-B3 variant S239_07I/GpL16-k0 (antibody, human IgG1, kappa)
heavy 1: not shown
heavy 2: not shown
light: B1 light
notes: as for B1
B20: GpH7-A5/GpH7-B3 variant S267_07I/GpL16-k0 (antibody, human IgG1, kappa)
heavy 1: not shown
heavy 2: not shown
light: B1 light
notes: as for B1
B21: GpH7-A5/GpH7-B3 variant S324_06M/GpL16-k0 (antibody, human IgG1, kappa)
heavy 1: not shown
heavy 2: not shown
light: B1 light
notes: as for B1
B22: GpH7-A5/GpH7-B3 variant V266_07I/GpL16-k0 (antibody, human IgG1, kappa)
heavy 1: not shown
heavy 2: not shown
light: B1 light
notes: as for B1
B23: GpH7-A5/GpH7-B3 variant V266_08L/GpL16-k0 (antibody, human IgG1, kappa)
heavy 1: not shown
heavy 2: not shown
light: B1 light
notes: as for B1

Each binder was assayed against T1, FcγRIIb (human, UniProt P31994 43-217) (assay: SPR (Biacore), antibody captured, FcγR as analyte; relative to GpH7-A5/GpH7-B3/GpL16-k0 = 100).
T1 construct: extracellular domain; Soluble extracellular domain with C-terminal His tag, used as analyte in Biacore; also called FcgRIIb; 2b; not shown: His tag attached to the C terminus
T1 sequence (looked up): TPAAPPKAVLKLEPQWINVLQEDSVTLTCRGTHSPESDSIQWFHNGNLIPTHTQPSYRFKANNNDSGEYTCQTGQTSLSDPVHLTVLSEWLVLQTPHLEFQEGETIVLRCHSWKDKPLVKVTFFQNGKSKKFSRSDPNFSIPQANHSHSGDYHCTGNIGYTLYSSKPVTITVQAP
Procedure: (§1) The heterodimerized antibodies He Abs in which one of the H chains was introduced with an alteration were assayed for their binding activities to each activating FcγR and inhibitory FcγR according to the method described in Example 4. […] The activating FcγRs in FIGS. 26, 27, 28, and 29 are FcγRIa, FcγRIIa (R), FcγRIIa (H), and FcγRIIIa, respectively.
(§2) Analysis of interaction between objective antibody and the FcγR was carried out using Biacore T100 (GE Healthcare). HBS-EP+ (GE Healthcare) was used as the running buffer, and the measurement temperature was set to 25° C. Chips produced by immobilizing the antigen peptide by the amine coupling method to a Series S Sencor Chip CM5 (GE Healthcare), or alternatively, chips produced by allowing preliminarily biotinylated antigen peptides to interact with and immobilize onto a Series S Sensor Chip SA (certified) (GE Healthcare) were used. Antibodies of interest were captured onto an antigen peptide-immobilized chip, and allowed to interact to each FcγR diluted with running buffer. To regenerate and repeatedly use the chip, the antibodies captured on the chip were washed off by reacting 10 mM glycine-HCl, pH 1.5.
With B1 the He/Con_2b was 217 % of control (=100).
B2 was tested, and the He/Con_2b was 171 % of control (=100).
For B3, the He/Con_2b was 197 % of control (=100).
In the case of B4, the He/Con_2b is reported as 124 % of control (=100).
For B5, the He/Con_2b was 177 % of control (=100).
For B6, the He/Con_2b was 169 % of control (=100).
B7 was tested, and the He/Con_2b was 115 % of control (=100).
For B8, the He/Con_2b was 110 % of control (=100).
In the case of B9, the He/Con_2b is reported as 123 % of control (=100).
B10 was tested, and the He/Con_2b was 119 % of control (=100).
B11 was tested, and the He/Con_2b was 110 % of control (=100).
B12 was tested, and the He/Con_2b was 102 % of control (=100).
For B13, the He/Con_2b was 114 % of control (=100).
For B14, the He/Con_2b was 116 % of control (=100).
In the case of B15, the He/Con_2b is reported as 114 % of control (=100).
With B16 the He/Con_2b was 108 % of control (=100).
In the case of B17, the He/Con_2b is reported as 102 % of control (=100).
B18 was tested, and the He/Con_2b was 101 % of control (=100).
In the case of B19, the He/Con_2b is reported as 107 % of control (=100).
With B20 the He/Con_2b was 192 % of control (=100).
In the case of B21, the He/Con_2b is reported as 112 % of control (=100).
For B22, the He/Con_2b was 152 % of control (=100).
For B23, the He/Con_2b was 236 % of control (=100).

Each binder was assayed against T2, FcγRIa (human, UniProt P12314 16-292) in the same assay as above.
T2 construct: extracellular domain; Soluble extracellular domain with C-terminal His tag, used as analyte in Biacore; also called FcgRI; 1a; not shown: His tag attached to the C terminus
T2 sequence (P12314 16-292): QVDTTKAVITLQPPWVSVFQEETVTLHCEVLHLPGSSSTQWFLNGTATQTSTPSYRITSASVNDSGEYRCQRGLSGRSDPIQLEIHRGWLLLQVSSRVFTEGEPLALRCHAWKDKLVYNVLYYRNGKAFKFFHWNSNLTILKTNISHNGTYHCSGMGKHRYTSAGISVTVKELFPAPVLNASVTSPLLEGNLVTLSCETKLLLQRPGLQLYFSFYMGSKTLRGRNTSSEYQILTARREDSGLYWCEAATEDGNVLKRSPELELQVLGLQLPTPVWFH
Procedure: as §1, §2
With B1 the He/Con_1a was 97.6 % of control (=100).
For B2, the He/Con_1a was 94.8 % of control (=100).
In the case of B3, the He/Con_1a is reported as 97.5 % of control (=100).
B4 was tested, and the He/Con_1a was 99.9 % of control (=100).
B5 was tested, and the He/Con_1a was 96.8 % of control (=100).
For B6, the He/Con_1a was 93.8 % of control (=100).
With B7 the He/Con_1a was 96 % of control (=100).
For B8, the He/Con_1a was 97.6 % of control (=100).
For B9, the He/Con_1a was 99.9 % of control (=100).
In the case of B10, the He/Con_1a is reported as 92 % of control (=100).
For B11, the He/Con_1a was 95.5 % of control (=100).
In the case of B12, the He/Con_1a is reported as 93.6 % of control (=100).
In the case of B13, the He/Con_1a is reported as 93.4 % of control (=100).
With B14 the He/Con_1a was 95 % of control (=100).
With B15 the He/Con_1a was 96 % of control (=100).
In the case of B16, the He/Con_1a is reported as 95.9 % of control (=100).
B17 was tested, and the He/Con_1a was 85.3 % of control (=100).
For B18, the He/Con_1a was 99 % of control (=100).
With B19 the He/Con_1a was 97.8 % of control (=100).
In the case of B20, the He/Con_1a is reported as 100 % of control (=100).
With B21 the He/Con_1a was 99.2 % of control (=100).
With B22 the He/Con_1a was 99.3 % of control (=100).
For B23, the He/Con_1a was 98.1 % of control (=100).
